For one substance, Kd results are on record in PMC12647727.

This assay concerns the target FcRn β2-microglobulin complex (UniProt P55899). Description: BLI. Background: BLI is a label-free optical method that tracks binding on a fibre tip over time.
Sequence of UniProt P55899 (P55899 24-365, chain 1 of 2): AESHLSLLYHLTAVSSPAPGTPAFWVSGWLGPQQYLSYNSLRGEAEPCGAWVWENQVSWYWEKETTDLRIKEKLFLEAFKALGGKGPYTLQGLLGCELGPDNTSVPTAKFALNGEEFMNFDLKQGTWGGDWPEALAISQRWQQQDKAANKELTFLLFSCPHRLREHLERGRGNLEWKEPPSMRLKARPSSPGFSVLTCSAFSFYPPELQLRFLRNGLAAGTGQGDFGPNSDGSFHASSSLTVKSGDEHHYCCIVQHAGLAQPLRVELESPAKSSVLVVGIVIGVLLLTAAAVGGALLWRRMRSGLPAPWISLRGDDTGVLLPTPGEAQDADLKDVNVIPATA
Sequence of UniProt P55899 (P61769 21-119, chain 2 of 2, further chain): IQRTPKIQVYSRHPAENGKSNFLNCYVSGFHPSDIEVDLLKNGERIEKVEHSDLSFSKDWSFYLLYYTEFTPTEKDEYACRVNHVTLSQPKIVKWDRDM

Usually Kd stands for the free concentration of one partner at which half of the binding sites on the other are occupied at equilibrium, for simple one-to-one binding. A low value points to tighter binding. On to “single-chain IgG atezolizumab (scAtezo) (antibody)”, for which the equilibrium dissociation constant (Kd) turned out to be 6.2 nM.
